Experimental data from the DeepSol protein solubility set.

assay: soluble on expression in E. coli; label from the status in PepcDB or PDB records

Sequence | soluble on expression in E. coli
MLLVMRAKQGKKTPKRKSQGVGNTQGQTPGSNDSDWVDQIGQSVSDGTQPDWSWNESAETASAAVSAQEVDPLTEYQVYKQFGYQGKAAESLAAYLDGIPDGEAKPENLIRELLDINLEVGDVDVLADNLQKYGKLILSELLAKYIEQALQRDSNHLRIRVLAEEGLGWGTQEIEKRAEGGSATAASASPPPDAGGKAYEAEEIKRIPIVRGKKDVSGISQEEIGAIAGLVRADQGAKILKDKVSYETASKQYDRAIQTSEKPANLIIDALKLDYQHADIDRFAGHLWKLYQTLGNYGRQVKERMLGWGYSLGYHEVFDDLEKGPNDRQIKDIGMGHGYLPKNIQKFKSQHRDLVLQDSSLINTGSSPADDAVKEVESLLMYGQIEAAMDVLEQAVLKYPDESQLYITLIDIYERTEDWDRLGQFLRVLRERADRLPEEVVMLMSRLLQRMNQNIKKIKRYGK | not soluble
MTESYDVVVVGGGPVGLATAWQVAERGHRVLVLERHTFFNENGGTSGAERHWRLQYTQEDLFRLTLETLPLWRALESRCERRLIHEIGSLWFGDTDVVTNEGQISGTAAMMDKLSVRYEWLKATDIERRFGFRGLPRDYEGFLQPDGGTIDVRGTLAALFTLAQAAGATLRAGETVTELVPDADGVSVTTDRGTYRAGKVVLACGPYTNDLLEPLGARLAYSVYEMAIAAYRQATPVTEAPFWFAFQQPTPQDTNLFFGFGHNPWAPGEFVRCGPDFEVDPLDHPSAATGVADRRQMDRLSGWLRDHLPTVDPDPVRTSTCLAVLPTDPERQFFLGTARDLMTHGEKLVVYGAGWAFKFVPLFGRICADLAVEDSTAYDISRLAPQSALLEHHHHHH | soluble
QVRQSPQSLTVWEGETTILNCSYENSAFDYFPWYQQFPGEGPALLIAIRSVSDKKEDGRFTIFFNKREKKLSLHITDSQPGDSATYFCAATGANTGKLTFGHGTILRVHPNIQNPDPAVYQLRDSKSSDKSVCLFTDFDSQTNVSQSKDSDVYITDATVLDMRSMDFKSNSAVAWSNKSDFACANAFNNSIIPEDTFFPS | soluble
MTNPLNSTAANRSNQPSSDGISDGQITNEEAESLINKKNCSGHKLKEVTDSDTFSDNGKDDSDTKKRFHYHQDQRRMSLTSIVAVESPSSSNAPSRKTIDLGHGSDLIYIQRFLPFQQSWTFFDYLDKHIPWTRPTIRVFGRSCLQPRDTCYVASSGLTALVYSGYRPTSYSWDDFPPLKEILDAIYKVLPGSRFNSLLLNRYKGASDYVAWHADDEKIYGPTPEIASVSFGCERDFVLKKKKDEESSQGKTGDSGPAKKRLKRSSREDQQSLTLKHGSLLVMRGYTQRDWIHSVPKRAKAEGTRINLTFRLVL | not soluble
MGSDKIHHHHHHMTTLGIDHPLVCVRDLAAKRATYQSLGFLMKPPGMHPWGTSTALVIFRNQLLELVSIEDESLLDGYAAGSFRFGRHVEAWLAEREGVCLSALNSMDAEADEAAVLARGGSCAGTVEFGRDVVRDDGTPDRTKTTLKIFPHAGLPRLSMFACQQHRRDLIEFPDWMDHPNGAHGFASATILAAPSDQGRVRDWLSVLHGADAVRDTDWGFEVATTNGRWRVVSRATAPALLGKLPDGLASDGAPSVISLDIRCHALSQLRPFVEAGEFVCQDVNGALVLTEVARLGGILLSFHEIPKV | not soluble
MKKGIDIGGTFIKVLWEDGKKEKHYIKDLKKDREALMEKIREVIKAGNPSGVGIAVAGFTSLNGIVYKSPNIPALDKTDFRKVLEDINIPFVVGNDVNLGAFGEWYYDYRDSKILLLVAVGTGLGTGLVYKGEVFFGVCGSALEMGHHTVKKGGELCNCGRKGCWEAYCSSYAIEREYKKLTGRTLKDYEIAEKAKEGEEEALKVVESFKDYLITGLMNGVHIFNPDRIVLAGGVIETFKEFLRDVPEKVKEISEELPALCLKISFSRAGEFMGARGALAYALKYLLEHHHHHH | soluble
MIELAELTKTAGGLVIDQFTQKRERPDSRTMIGSGKLEQMRWAIEVGEIDTVIFNDRLSPRQNVNLEEALGVKVIDRMQLILDIFAMRARSHEGMLQVEEAQLNYLLPRLVGQGIMLSRQGGGIGSKGPGETKLETDRRYIRTRIENIDKALKKVEKTRENIRQKRSKSGIFRIGLIGYTNAGKSSIMNALVGLDKEQYEQNELFATLDATTKAVKLVEDFTVSLTDTVGFIQNLPTELIKAFKSTLEESANVDLLIHVVDASNPHHEIHEQTVLKIMEDLKLTNIPVLNVYNKMDIAPSDFLPTLSPSLQLSIKSESGVQWLKTAILEKLHELFDAFELELPYEKAYQLPELRKSALVQSVVEGEKGYLIKGLIAPELSWKLPNNLEHHHHHH | not soluble
MDVTRQIELAHRYMKDFHKSDYSGHDVAHVERVTSLAQTISKCEQQGEYLIITLSALLHDVIDDKLTNKANALDRLKTFLKNIRVSSDQQQKIIYIIQHLSYRNGQNNHVDLPIEGQIVRDADRLDAIGAIGIARAFQFSGHFNEPMWTESPHSDIPNIETITNLEPSAIRHFYDKLLKLKDLMHTETGRKLARERHAFMEQFLNQFYKEWHILEHHHHHH | soluble
MAHHHHHHMGGVRIARCNPKLLDFVTWAVMKGCRLFQRVHVTPLGLVATERIPEFDFVAVVPVEATQSLLSIADDPSFALKVSAERHGEPVPFWEDLTRGSFAFLGFLTKALLTGHPRGVQTYLDVLPFDPAMPIGKMADAAQTTKGYKEWAAPLVAQCKVEESDFNAAFRHAYCLFRRHAIPLWSTSDASGSGHPYFQQSPYARRGQGELMGMVPVMDLALHSPQPNAMIGYPDEEMLQWLSLHKKAAVQQEKGYFVMQAFRDIEEGEVISVNKNAYFNFDDDAFEAWFGYPNVSQVPAEGSGELSSGCKPNGGEGAAVNCAL | soluble
MSLKQIPLAERMRPKTLADYVGQQHLIGSGAVLRQMIEQGQTPSMILWGPPGVGKTTLAEIIAHEVDAPFYTLSAVSSGVKEVREVIADIESNRGNLFDKGGRAILFIDEIHRFSKSQQDSLLAAVERGIVTLIGATTENPSFEVIRPLLSRCQVYVLKPQSDEDLLLLAHRAIDRDELLAAKHPVLEETEALLLYAGGDARKLLNILDLLATSEVEDRLVITNEKIRQRLQENPAAFDKGGELHYDIASAFIKSIRGSDPDAAIYWLARLIDGGEEPSFIARRLIISASEDIGLANPNAMLIAMACAEALDRIGWPEGRIPLAEATIYLATSEKSNSAYLAIDSALEYVRQSGNLPVPLHLRNAPTRLMADLDYGKGYKYSHDFPEHFVSQQYLPDKAANTSFWTPQMHTVHEAKLGERMKRWWKREKSQKDEGHHHHHH | soluble
AKDFEWNFAATLSMDKNKVTRLYGDNDVVYNVDSDRNIQKEGNLFLGESRNTIYIWKTGGIAQEIDMDRLNKINWNGYNVNPGDLYPLDYDNNGQIDQNDRVVIGSTDPKFYGGFSTDFSWKGLSLNAVFSYSYGAKKLSPWYETLIGSTGSGVASTDLLDRWTPENTDAEFPRVLAGFDYNHYGASSMDFSVQKASFLRLSALTLAYTFPTKVINALKLTNLRVYATGSNLFCLTNYNGYDPETGDWYPPTRMYTFGLNLAF | not soluble
MNSPANITDPLVLFMPSGKRGRFPVGTPVLDAARQLGVYVESVCGGRATCGRCQIEVQEGNFAKHKIVSSNDHISPKGPKEERYERVRGLPERRRLSCSAQILGDLVIDVPQDTVINAQTIRKDLEHHHHHH | not soluble
MTLNIQGIAASSGIAIAKAFRLENPEFNIEQKSITNEAAEIARLEAALEKAKTELEAIKDHAFAELGADKAAIFEAHLLVLNDPELVNPVKDKVNSEKVNAEFAMDEVASMFISMFENMDNEYMKERAADIRDVTKRVLAHLLGINFSNPGTNSEEVIIIAEDLTPSDTAQLNRKYAKGFTTDIGGRTSHSAIMARSMEIPAVVGTKVVMEKIQNGDIVIIDGLDGEVIVNPSEETLRSFEEKKAKFEEQKAEWAKLKDQATVTSDGHHVELVANIGTLNDVQGIIDNGGEGVGLYRTEFLYMGRDNLPTEEEQFEAYKAVLEGVKEGQPVVVRTLDIGGDKELPYLHLPKEMNPFLGYRAIRLCLDEQDVFRTQLRALLRASVYGNLKIMFPMIATLDEFRQAKAILLEEKAKLVEVGTTVSDSIEVGMMVEIPASAVLADQFAKEVDFFSIGTNDLIQYTMAADRMNEQVSYLYQPYNLSILRLVKMVIDAAHKEGKWAGMCGEMAGDSLAIPLLLGLGLDEFSMSATSILPARTQLSKLSKAEMETLAEKALMMSTAEEVVELVKSI | not soluble
MSSMSESDSYQSSQLTSEPDLVALDAKIMAVMDGTEELEREIGKMMALQQAISDYKKSHQHRTQRTKEKLTDMSKDLTITGKNIVKSCEERLKQISDVTEPYINSGISSVEDHTSSVVERCIQMLGAISGLGGAMKKTEGLSSKVLEHHRKLAIMEHKQADAISRYEKAVGVQKLVREHPAGDPLHELANLLGIFLALQQSPNTSEYYKKVFDGFGGRVTALFAEIDRPKTAKSLATRSGMSTLSSMSNGEINLESIKDNTEIPVDTCQ | not soluble
MSLSRSLDSARSFLERLEARGGREGAVLAGEFSDIQACSAAWKADGVCSTVAGSRPENVRKNRYKDVLPYDQTRVILSLLQEEGHSDYINGNFIRGVDGSLAYIATQGPLPHTLLDFWRLVWEFGVKVILMACREIENGRKRCERYWAQEQEPLQTGLFCITLIKEKWLNEDIMLRTLKVTFQKESRSVYQLQYMSWPDRGVPSSPDHMLAMVEEARRLQGSGPEPLCVHCSAGCGRTGVLCTVDYVRQLLLTQMIPPDFSLFDVVLKMRKQRPAAVQTEEQYRFLYHTVAQMFCSTLQNASEGHHHHHH | soluble
MLARLVLGTSGRAALGSVEPALGGLKSIWRCSQAFCSTPKGVTYRELKSLLNSKDIMLIDVRNTLEILEQGKIPGSINIPLDEVGEALQMNPVDFKEKYCQVKPSKSDRLVFSCLAGVRSKKAMDTAISLGFNSAQHYAGGWKEWVTYEISEEKQES | soluble
MRTTSRALMYGLYDEFQISLKCPRSPPNSSFSICHAQAAFLSGVCEAMLCPLERVQVLLQTTIFHDKFKNTLHTFNRLRDYGYREYYRGFSVILIRNSLSNTIFFTLRDPLKQKIVGIPQAGRLPESLQQLIGDFVAGSLLGATISTAFFPLGVIKNHMQAKVGVKYESGFKVFRDVWQLRNRSLRGLYLGVHLNFTRSLVAWGIINSMYGILRRALAPFE | not soluble
MGKEMASEYELGQVRLGEFQLYTNGEELYRKLFEDINDAEKYIYIHFYIVGKDEISQEFLQLLEKKASSGVEVKLSVDRIGGYKLKKKVISRLKENGVKFTFSKKPKLKNVFYSLHQRNHRRIVTIDGKVSYVGGFNIGKEYLGQNPKFGPWRDYHVRIHGEGAADMERKFAEDWKEDTGEKMPIHESIPTLGNVKYQYLFSNGKGLWEKYGALLKKAKKSLIIATPYFVPSKEMVKELKAALNRGVNVKILVPFKSDAILLKQAAYPYLKDMLHAGAEIYQYRNGFFHGKVTIIDGEIVDIGTANFDNRSFYLNCESNCIIYDKTVVDEVWSRLQVDFHKSKRFSEEDFEKISRWDWFLARIANVLASYL | not soluble
MAGKQITLASLPIGKKARVKSLTLDGTIRRRIMDLGLVSDTIVEALQKSPSGDPTAYHIRGAVIALRSEEASKIMVEVN | not soluble
MGSDKIHHHHHHMNSSHGTSSSGASAGAHGALPLEAQKLNGWGRTAPTTAEVLTTPDLDIIVDAVRQVAEQNDSKPDYLKRGVIARGMGRSYGDPAQNAGGLVIDMQPLNKIHSIDPDSAIVDVDGGVTLDQLMKAALPYGLWVPVLPGTRQVTIGGAIGPDIHGKNHHSAGSFGDHVVSMELLVADGRILHLEPEGTAEDPQGDLFWATVGGMGLTGIIVRARIRMTKTETAYFIADTDRTNNLEETVAFHSDGSEHNYTYSSAWFDVISPEPKLGRSTISRGSLATLAQLEELAPKLAKDPLKFNAPQLMKVPDIFPSWTLNKLTLSAVGVAYYAMGAPAKNQVKNLTQFYQPLDLIGEWNRGYGSKGFLQYQFVVPTEAVEPFKDIIRDMQKSGHYSALNVFKLFGPGNRAPLSYPMPGWNVCVDFPIRPGLGAFLDDLDKRVMEFGGRLYLAKESRTSAENFHAMYPGMEGWLKTRNEIDPTGVFASDMSRRLELS | not soluble
